Experimental data reported in publication doi:10.1101/2023.05.14.540690.

Target: stressed NISTmAb monoclonal antibody
Experiment: AUC; sedimentation velocity at 50,000 rpm and 20 °C; c(s) analysis in SEDFIT (command line operated, and repeated manually on the same data); stressed, partially denatured sample

Substance stressed NISTmAb monoclonal antibody has a percent of signal in higher aggregates (command line analysis) of 51.8%, a percent of signal in higher aggregates (manual analysis of the same data) of 51.7% and a percent of signal in the dimer peak of 12.5%. The stoichiometry N was 2.
